Series [1] has as its system Il2rg ZFN-1 (synthetic construct). Briefly: cell_activity. The following applies: ZFN-1+ZFN-2 pair with LTVEC versus LTVEC alone, fold increase in targeting efficiency; 6 bp spacer; mouse F1H4 ES cells.
Series [2] has as its system Il2rg ZFN-2 (synthetic construct). The series can be described thus: cell_activity. The following applies: ZFN-1+ZFN-2 pair with LTVEC versus LTVEC alone, fold increase in targeting efficiency; 6 bp spacer; mouse F1H4 ES cells.

Sequence “AGCTCCAAGGTCCTC (double strand) [Il2rg exon 1 ZFN-1 half-site (sense strand)]” yielded an activity in series [1] of 4 fold.

On to “GTCTTCATTCGCACT (double strand) [Il2rg exon 1 ZFN-2 half-site (anti-sense strand)]”, for which the activity in series [2] came out at 4 fold.

Source of the values: patent US20180037910.
